# According to the supplement of paper PMC12764529:
# Assay: folding stability dG unfold (combined trypsin and chymotrypsin); higher = more stable
# Protocol: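 Folding stability of de novo designed mini-proteins (<80 aa, no Cys; designed by TrROS, TrMRF, ProteinMPNN and the joint model) was measured by cDNA display proteolysis with trypsin and chymotrypsin. Each protease was used at 11 concentrations in a threefold dilution series plus a no-protease condition. K50 was inferred by Bayesian fitting of sequencing counts, and dG unfold was derived against a sequence-predicted unfolded-state K50 (Tsuboyama et al. method). Sequences shown include variable-length N-terminal GS-type padding (SAGGSAGG...) inside a display construct carrying a PA tag. Rows were kept only if the AF2 dimer inter-PAE was >15, to exclude likely homo-oligomers.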
row,Sequence,folding stability dG unfold [kcal/mol]
1,SAGGSAGGSAGGTIEELAEKLPNVDLKPVEPGPGMRRIKAQPPNGKKFTIMVDDGKIHIQSAGGSAGGSAGG [r7_26_TrROS],< -1
2,SAGGSAGGSAGGVVSPSSEPVEMTVEEVILETERVPESGESLRPLPVRRVLRTVTNFGLSAGGSAGGSAGGS [r10_122_JUSTAS],< -1
3,SAGGSAGGSAGIKIPSNYKYKIEKSKDDYYEIYTEDKNKKFIVPKNAPIVVFEDNTVYVKSAGGSAGGSAGG [r17_49_TrMRF],< -1
4,SAGGSAGGSAGIKVDQNPESNMFSVKIRNDGKEKTIEIDMPPGEPPDIDDLAKKLGIEVVSAGGSAGGSAGG [r11_1053_TrROS],< -1
5,SAGGSAGGSAGKKKPPPKVTLVIRVKMSPEEVKKLAELFPDAKVTVTYDEETGLLTVTFDSAGGSAGGSAGG [r17_254_TrROS_Hall],> 6
6,SAGGSAGGSAGKNVPFRWRIRDPKNGNEKTIDVPMDSPEDMNRAADELQKKFPGYKVEPYSAGGSAGGSAGG [r11_233_TrROS],< -1
7,SAGGSAGGSAGKYISVDELRKNGDPDEAERVVKKIMEKFPGPKIKPIEWDKDGNHMFKIKSAGGSAGGSAGG [r11_365_TrROS],< -1
8,SAGGSAGGSAGMKIFKSKEEAKKAAGPPVELKVKKVPPGSIGKGDPNDTAYLVELKPKEKSAGGSAGGSAGG [r11_168_TrMRF],< -1
9,SAGGSAGGSAGMKKLVKITARVPDEKGNPILVEYEEEVDLKPSDSLPVPEGVLEEIEILESAGGSAGGSAGG [r11_664_JUSTAS],< -1
10,SAGGSAGGSAGMMTLKTGSVTIVRPVPAEEAPAPPEVPGAEELTRTEVVKTEVELLPAELLSAGGSAGGSAG [r3_488_JUSTAS],< -1
11,SAGGSAGGSAGMTPLYFRVERVDPASGGSLEEVVEIDPAEREAVVEELRAVPGLVRVELVSAGGSAGGSAGG [r17_438_JUSTAS],< -1
12,SAGGSAGGSAGPLVLVKELKSSRPVFDKNGKLIGTKTEVLVEAELLAPPANPDDPRYKETSAGGSAGGSAGG [r11_131_TrMRF],< -1
13,SAGGSAGGSAGPPGEPKPKPERKTVHINIPYPPGHPEMREKARELANELQDEGAKVEIYWSAGGSAGGSAGG [r11_519_TrROS],< -1
14,SAGGSAGGSAGPTTSSRTVKPGEVEEVKEAIEAQGVSVTVTLDPSTGTYTVGVTNPGVLGSAGGSAGGSAGG [r11_1043_JUSTAS],< -1
15,SAGGSAGGSAGSEKLEKIKEELKKKGYNDVEVKPAGPDPSVVLVKVKENKDIIIKIENEESAGGSAGGSAGG [r11_765_JUSTAS],< -1
16,SAGGSAGGSAGSMTVTVLEVVPGVPEVVLRRGDTEIRVPASRYTLERDADTTTLVVPEAASAGGSAGGSAGG [r17_403_JUSTAS],< -1
17,SAGGSAGGSAGSPAAERIAKYMEKQGGDNIDIEPVGPRPGYVRIKMKNNRPITIPLKEGDSAGGSAGGSAGG [r11_765_TrROS],< -1
18,SAGGSAGGSAGTRTINMPNPHQARELIKEQPPGKPITIHMPNPEWAKELADAPGVPIQMHSAGGSAGGSAGG [r11_1071_TrROS],< -1
19,SAGGSAGGSAIGLKDAVPGIENVAKALGAKAKAELKVLPDGKPYLVAKLYKDGKPLGELKVDSAGGSAGGSA [r18_369_TrMRF],< -1
20,SAGGSAGGSAIKIPPGYWVRGEFPNVTRHIPIDDIDELKKTFPGNPIRDIEVYDPEDGKPISAGGSAGGSAG [r3_134_TrROS],< -1
21,SAGGSAGGSAIVEKIAKEFGFPAKIEVKRERNPGKWVVIPVRVRDPNGGKTWERKIHLPPNQSAGGSAGGSA [r18_313_TrROS],< -1
22,SAGGSAGGSAKHDVKIDDVERMPNPYRFTITFPGNGKPIPIPFRPNMSIDEMKKEAKELAKSAGGSAGGSAG [r3_142_TrROS],< -1
23,SAGGSAGGSAKIKLENPDNMPPEELADTIAEEAREQHPDDKNIEIPFQFPNGNPWRITVDVPSAGGSAGGSA [r18_449_TrROS],< -1
24,SAGGSAGGSAMEAEATPIPLETEEFEIVVTILPGGTARVTTTPPEDGVPTESTVSVETVRALSAGGSAGGSA [r18_247_JUSTAS],< -1
25,SAGGSAGGSAMLVELEAGRVIEVPDATPEETRERVRAAVPPEVADEVRIVRAYDPERPVELSAGGSAGGSAG [r3_340_JUSTAS],< -1
26,SAGGSAGGSAMNVKFFKLSENELRIEYNEIEEFEDGSLSEEIKTEILKLNLPEDDKKVKELLSAGGSAGGSA [r18_215_JUSTAS],< -1
27,SAGGSAGGSAMSVSVSSPENAEKLAKEIKEKNPNEIPKITKGSGSNSYTLTLPSGKNIKVSSSAGGSAGGSA [r18_154_JUSTAS],< -1

row,Sequence,folding stability dG unfold [kcal/mol]
1,SAGGSAGGSAMTLRDIARELAEKHGEPYKIKISHPNGRKREFNPDDLDRIPPGPWEVEIERPSAGGSAGGSA [r18_394_TrROS],< -1
2,SAGGSAGGSAMTSVKRSSGSWSITITTPDSTTTTTKAATEEEVQAEVEELKKPGIKVELSPESAGGSAGGSA [r18_103_JUSTAS],< -1
3,SAGGSAGGSANPRTITVQYPVDPNGKPLPAEELADELQNEPFKVTDPQWNPEDGYVEDTIEVSAGGSAGGSA [r18_466_TrROS],< -1
4,SAGGSAGGSAPDMYRIRAKFPDGKPFPIEFNPEDGQIEVWDGNKEQTIPPGKPIKIDKIEPVSAGGSAGGSA [r18_144_TrROS],< -1
5,SAGGSAGGSAPEFVVEGSEEEAEAVFERIKAERPEEFEATDISTVSAVPPVPRYTPEGVLVSAGGSAGGSAG [r3_89_JUSTAS],< -1
6,SAGGSAGGSASAEELAEALRREHPDAEVTVTVTPVPREVGPRPVLEREVTVESVRSPEEPASAGGSAGGSAG [r3_118_JUSTAS],< -1
7,SAGGSAGGSASAWEQYPNTTPGTTSKTDDVTVRTLTFPNPTTVVTVTEFPGGEVTVTTVPTPSAGGSAGGSA [r18_26_JUSTAS],< -1
8,SAGGSAGGSASMRTITITSSTSPSGPPLPAAELAAELAKEGYTVTDPRRVPAEGKLVFTVVASAGGSAGGSA [r18_466_JUSTAS],< -1
9,SAGGSAGGSASSWTLLSTEKLGSKTRTTMNDPANGKTVTIETDPANGSKVVKVENKETEIESAGGSAGGSAG [r3_297_JUSTAS],< -1
10,SAGGSAGGSATLEQIKEAIKDSPPGEPARIPFPNGYTIRIDMRYDKEENKIDDFDIEIEPPNSAGGSAGGSA [r18_202_TrROS],< -1
11,SAGGSAGGSAYFVRIDNGPTIPIPGMSPDEAKEQLKEYLPPPNKENLKITDVYSPDNGKPLSAGGSAGGSAG [r3_340_TrROS],< -1
12,SAGGSAGGSDKFKIDNIYPDPDMWVYRIKFPKGKSHTFPIPEENIDEFAEDDGFNVEPLGPVPSAGGSAGGS [r12_676_TrROS],< -1
13,SAGGSAGGSEVTEFTGTIEDPNSSTVIEVKTKVIPLPNGTPVTITETTTTTGEKTTTTTTTFASAGGSAGGS [r12_619_JUSTAS],< -1
14,SAGGSAGGSGDKSPPLVPTVTLKTTDPDAVEKAVKAAGVAVTRYPGKGYYTFRKADVEKILKSSAGGSAGGS [r12_325_TrMRF],< -1
15,SAGGSAGGSGKIPKLIKEIGIPYEVKSIKVTTGKDDKPTVEIEFLPDVPEEDREKIKKAIEEESAGGSAGGS [r12_352_TrMRF],< -1
16,SAGGSAGGSGMEPTFVPVEEIYYNPESNEISKTKSTVVIPPDGTVETFTTTEKFKKPPNASLESAGGSAGGS [r12_116_JUSTAS],< -1
17,SAGGSAGGSGMPIVVTHPSGVGLDEYIPEPYVVTMREPDSVIKVTYDPATGTVTTEVDDGAARSAGGSAGGS [r12_243_JUSTAS],< -1
18,SAGGSAGGSGMPVVLLEATFDPNNPGTTYRLTTVDPNTGGVAESEIPASEAEARGLGPLDVLESAGGSAGGS [r12_123_JUSTAS],< -1
19,SAGGSAGGSISPEAAKEGPLTIEVSWMHPDGRTEEEEFPIGQPIKIPPDFKDRPPQITSIRPRSAGGSAGGS [r12_161_TrROS],< -1
20,SAGGSAGGSKILEIERDPEKGLVKITVPPDVPPNPHPRLLKVEPKNNKYIVTFPMSPSDEIELSAGGSAGGS [r20_37_JUSTAS],< -1
21,SAGGSAGGSKLKIEQDPSDGFLQIQIPPGDEEVKIKFNGEEIEFPLPPGQPIWIPANNWKIEPSAGGSAGGS [r20_26_TrROS],< -1
22,SAGGSAGGSLVELEEEDPSVPVRRRYFIEKPSDGKVKVKEETVVPEPGEVVRSERVISLEEFEKSAGGSAGG [r6_652_JUSTAS],< -1
23,SAGGSAGGSMDDTEEESSSVSRFLENGERYTTRTKTTTRIRPDGTEEVEVEVTTTPLPPDVPLSAGGSAGGS [r12_927_JUSTAS],< -1
24,SAGGSAGGSMELPSGVVVKSTSEDPAAKTVTVSFPSGAVYTLPLPDPNVSQPVTVKTPPGAGVSAGGSAGGS [r12_149_JUSTAS],< -1
25,SAGGSAGGSMKTVTIEVKRPSPDITLEDIKEELLKKNPEVEEVEVEEYPEEGLYKVKVTIKPKSAGGSAGGS [r20_31_JUSTAS],< -1
26,SAGGSAGGSMKVELIRTEEGKVVATEFFPVPLLLPGGVPALLEGSRTIKTIPVKDPEKAKELLSAGGSAGGS [r12_915_JUSTAS],< -1
